{"source": "patent US10434074B2", "about": "“Peptide and small molecule agonists of EPHA and uses thereof” (CASE WESTERN RESERVE UNIVERSITY, priority 2004, dated 2019)", "format_in_all_cases": "cell-based, human", "key": {"[1]": {"test_system": "DU-145 cells", "assay": "Modified Boyden chamber cell migration assay", "procedure": "FIGS. 2(A-E) illustrate EphA activation inhibited DU-145 cell migration. (A) Expression of c-Met is elevated in cell lines derived from more malignant prostate cancer. Total cellular proteins were immunoblotted with anti-human c-Met. An anti-tubulin blot was used as a control for protein loading. (B) In a modified Boyden chamber assay, DU-145 cells were placed in the upper chamber and allowed to migrate to the lower chamber containing indicated reagents. After 8 hours, cells were stained with crystal violet and cells remaining in the upper chamber were removed. Top panel: Cells migrated to the undersides of membrane were counted; six high power fields were counted. Results represent means±S.D. Representative fields were shown in the lower panel. (C) Ephrin-A1-Fc inhibits DU-145 cell migration when HGF/SF was uniformly presented in both sides of membranes. The experiment was carried out as described in A. (D) Inhibition of cell scattering by immobilized ephrin-A1 in a SOIL assay (Method). Ephrin-A1-Fc or control Fc was immobilized on 6-well culture dishes. Freshly confluent DU-145 cells on cover slips were transferred to the coated surfaces. Cells were stimulated with HGF/SF to induce migration off the cover slips to immobilized Fc or ephrin-A1-Fc. After 48 hours, cells were fixed and stained with crystal violet. The cells that had migrated to the coated surface were photographed after removing cover slips. (E) DU-145 cells were grown to confluency and a wound was generated by scratching monolayer with a 200 μl pipette tip. The wound healing was recorded prior to and 12 hours after the addition of Fc, ephrin-A1-Fc (1 μg/ml) and/or HGF/SF (20 ng/ml). Representative results from 3 independent experiments are shown.\nModified Boyden chambers of 8 μm pore size (Costar) were used for migration assay. Both sides of the membranes were coated with 10 μg/ml collagen at 4° C. overnight. […] Cells migrated to the underside of the membrane were counted under 200× magnification."}, "[2]": {"test_system": "DU-145 cells", "assay": "MatriGel invasion assay", "conditions": "24 hours", "procedure": "FIG. 3 illustrates EphA activation inhibited DU-145 cell invasion. DU-145 cells were placed in the upper chamber of MatriGel-coated Transwell. Fc, ephrin-A1-Fc, HGF/SF/Fc or HGF/SF/ephrin-A1-Fc, were added in the lower chamber. After 24 hours, cells invading through MatriGel and migrated to the undersides of membrane were counted. Representative results (mean±S.D.) from three independent experiments are shown.\nFor invasion assay, the upper chamber was coated with 50 μg of growth factor-reduced MatriGel (BD) according to manufacturer's instructions. The same procedure as in migration assay was followed, except that the cells were allowed 24 hours to migrate to the underside of the membranes."}, "[3]": {"test_system": "E-cadherin", "assay": "E-cadherin immunoblot and immunofluorescence", "procedure": "FIGS. 5(A-E) illustrate (A) Ephrin-A1 co-stimulation inhibited the loss of E-cadherin induced by HGF/SF. DU-145 cells were treated as indicated for 24 or 48 hours. Cell lysates were subject to anti-E-cadherin immunoblot. Same membrane was stripped and blotted with anti-ERK1 as loading control. Relative intensity of E-cadherin=intensities of E-cadherin band/intensity of ERK band. (B) Immunofluorescent staining of E-cadherin after 24 hours of the indicated treatment. Note almost exclusive cytoplasmic staining pattern in HGF/SF treated cells, while cotreatment with ephrin-A1 restored significant levels of E-cadherin at cell-cell junction. (C) Ephrin-A1-Fc pre-treatment preserved E-cadherin expression in HGF/SF treated cells. DU-145 cells were pre-treated with Fc or ephrin-A1-Fc for 24 hours. HGF/SF was then added. The cells were cultured for another 24 hours and lysed for anti-E-cadherin immunoblot. Anti-ERK1 was used as loading control. (D) Cells grown on cover slips received same treatment as in C were subject to anti-E-cadherin immunofluorescence analysis. Note the significant preservation of E-cadherin localization at cell-cell adhesion site by ephrin-A1-Fc compared with Fc control. (E) Numbers of total cells and cells without contact with other cells were counted in 6-8 randomly chosen fields. * Fc/HGF/SF vs. ephrin-A1-Fc/HGF/SF: p=4.6×10^−7.\nCells were cultured on cover slips in 24-well dishes for 24 hours, fixed in 4% formaldehyde for 20 minutes and permeabilized with 0.5% NP-40 for 10 minutes. Blocking was performed using blocking solution containing 2% BSA and 2% goat serum in PBS. Subsequently, cells were incubated with 1 μg/ml anti-EphA2 or anti-E-cadherin antibody. A Texas Red-conjugated goat anti-rabbit IgG or FITC-conjugated rabbit anti-mouse IgG was used to visualize the primary antibodies. Vector-Shield mounting solution containing DAPI (Vector Laboratories) was used to mount the cover slips onto slides.\nCells cultured in 6 well plates at 70-80% confluence were stimulated with 0.5 μg/ml Fc, 1 μg/ml epnrinA1-Fc or 20 ng/ml HGF/SF or their combinations as indicated. After stimulation, cells were lysed in RIPA buffer (20 mM Tris, pH7.4, 125 mM NaCl, 20 mM NaF, 0.1% SDS, 10% glycerol, 0.5% sodium deoxycholate, and 1% TX-100, 0.5 mM Na3VO4) containing protease inhibitors (1 mM phenylmethylsulphonyl fluoride, and 2 μg/ml each of aprotinin and leupeptin). Cell lysates were clarified by centrifugation at 13,000 rpm for 5 min. Immunoprecipitation was carried out by adding anti-EphA2 antibody to clarified cell lysates and incubated for 1 hour at 4° C. The immunocomplex was captured using γ-bind beads (Pharmacia). Cell lysates or precipitated proteins were separated on 4-20% Tris-glycine gels (Invitrogen) and transferred to Immobilon-P PVDF membranes (Millipore). […] For quantitative analysis, band densities were measured using KODAK 1D imagine analysis software (Eastman Kodak Company)."}, "[4]": {"test_system": "Akt", "assay": "Akt activities in PC-3 cells"}}, "note": "Entries after “also recorded” stand apart in the source; their conditions may differ."}
{"molecule": "ephrin-A1-Fc: ephrin-A1 dimerized by fusion to the heavy chain of human IgG1 (protein, left off: a dimerising Fc or GST, ephrin-A1 dimerized by fusion to the heavy chain of human IgG1) DRHTVFWNSSNPKFRNEDYTIHVQLNDYVDIICPHYEDHSVADAAMEQYILYLVEHEEYQLCQPQSKDQVRWQCNRPSAKHGPEKLSEKFQRFTPFTLGKEFKEGHSYYYISKPIHQHEDRCLRLKVTVSGKITHSPQAHDNPQEKRLAADDPEVRVLHSIGHS", "values": [{"measurement": "cell migration with HGF/SF on both sides", "setting": "[1]; HGF/SF both sides, ligand in lower chamber only", "result": "significantly reduced the number of cells migrated"}, {"measurement": "HGF/SF-stimulated cell migration", "setting": "[1]; HGF/SF in lower chamber", "result": "potently inhibited"}, {"measurement": "basal cell migration", "setting": "[1]; lower chamber, 1 μg/ml, 8 hours, vs Fc", "result": "reduced the basal level of cell migration"}, {"measurement": "HGF/SF-induced cell invasion", "setting": "[2]", "result": "significantly reduced"}, {"measurement": "basal cell invasion", "setting": "[2]", "result": "marginally reduced the basal cell invasion"}, {"measurement": "total E-cadherin, 24 hours pretreatment before HGF/SF", "setting": "[3]; immunoblot", "result": "significantly prevented HGF/SF-induced down-regulation of total cellular E-cadherin"}, {"measurement": "total E-cadherin on co-treatment with HGF/SF", "setting": "[3]; immunoblot, 24 or 48 hours", "result": "significantly preserved"}, {"measurement": "E-cadherin at cell-cell junction, 24 hours pretreatment before HGF/SF", "setting": "[3]; immunofluorescence", "result": "significant fraction of E-cadherin was retained at cell-cell junction"}, {"measurement": "E-cadherin at cell-cell junctions on co-treatment with HGF/SF", "setting": "[3]; immunofluorescence", "result": "dramatically retained"}, {"measurement": "E-cadherin expression", "setting": "[3]; ligand alone vs Fc, immunoblot", "result": "moderately increased E-cadherin expression; also recorded: increased E-cadherin expression at 48 hours"}, {"measurement": "Akt activities", "setting": "[4]", "result": "inhibition of Akt activities"}]}
